The target in the test is purified monomeric (gel filtered) recombinant basigin (Homo sapiens, UniProt P35613-2, strain). Put plainly: SPR.

B1: parent anti-basigin mAb (antibody, V domains shown)
VH: EVQLQQSGPELVKTGASVKISCKASGYSFSDDYMHWVKQSHGKSLEWIGYISCYNGVPSYNQKFKGKATFTVDTSSSTAYMQFSSLTSEDSAVYYCARGGNHGFYYHAMDYWGQGTSVTVSS
VL: DIVLTQSPAILSVSPGERVSFSCRASQSIGTGIHWYQQRTNGSPRLLIKFASESISGIPSRFSGSGSGTDFTLSINSVESEDIADYFCQQSTSWPYTFGGGTKLEIK
Turning to B1, the dissociation constant (Kd) is approximately 4 nM.

B2: recombinant chimeric anti-basigin antibody Ab-1 (antibody, V domains shown)
VH: B1 VH
VL: B1 VL
Regarding B2, the dissociation constant Kd was approximately 4 nM.
